What was measured:
[1] = biological target: cross-linked NBD1-M dimer with Walker B mutation E271Q in the free interface (Thermus thermophilus) (UniProt Q9RA63); test: SEC-MALS; Superdex 200 10/300 GL with multiangle static light scattering (SLS), buffer A (50 mM Tris/HCl pH 7.5, 50 mM KCl, 5 mM MgCl2, 2 mM EDTA); running buffer nucleotide-free or with 2 mM ADP or 2 mM ATP; 40 μl of 100 μM injected, about 2 μM at the detector; self-association induced by nucleotide; conditions: scale: NBD1-M subunits
[2] = biological target: cross-linked NBD1-M dimer with Walker B mutation E271Q in the cross-linked interface (Thermus thermophilus) (UniProt Q9RA63); test: as above; conditions: scale: NBD1-M subunits

Row | stoichiometry N [1] | stoichiometry N [2] | Substance
1 | 4 |  | cross-linked NBD1-M dimer with Walker B mutation E271Q in the free interface (from UniProt Q9RA63 141-534; Q9RA63 141-534) (complex)
2 |  | 4 | cross-linked NBD1-M dimer with Walker B mutation E271Q in the cross-linked interface (from UniProt Q9RA63 141-534; Q9RA63 141-534) (complex)

Source: paper PMC4239642, “trans-Acting Arginine Residues in the AAA+ Chaperone ClpB Allosterically Regulate the Activity through Inter- and Intradomain Communication” (The Journal of Biological Chemistry, 2014)
